How the values were obtained:
rab8a_human RAB8A [1] = target: rab8a_human RAB8A (UniProt P61006)
rab5a_human RAB5A = rab5a_human RAB5A (UniProt P20339)
rab8a_human RAB8A [2] = target: rab8a_human RAB8A (UniProt P61006); remark: listed apart in the source
rab1b_human RAB1B = rab1b_human RAB1B (UniProt Q9H0U4)
rab6a_human RAB6A = rab6a_human RAB6A (UniProt P20340)
rab8a_human RAB8A [3] = target: rab8a_human RAB8A (UniProt P61006); remark: listed apart in the source

Inositol polyphosphate 5-phosphatase OCRL (Homo sapiens), Q01968 F668V, sequence (Q01968 whole entry F668V): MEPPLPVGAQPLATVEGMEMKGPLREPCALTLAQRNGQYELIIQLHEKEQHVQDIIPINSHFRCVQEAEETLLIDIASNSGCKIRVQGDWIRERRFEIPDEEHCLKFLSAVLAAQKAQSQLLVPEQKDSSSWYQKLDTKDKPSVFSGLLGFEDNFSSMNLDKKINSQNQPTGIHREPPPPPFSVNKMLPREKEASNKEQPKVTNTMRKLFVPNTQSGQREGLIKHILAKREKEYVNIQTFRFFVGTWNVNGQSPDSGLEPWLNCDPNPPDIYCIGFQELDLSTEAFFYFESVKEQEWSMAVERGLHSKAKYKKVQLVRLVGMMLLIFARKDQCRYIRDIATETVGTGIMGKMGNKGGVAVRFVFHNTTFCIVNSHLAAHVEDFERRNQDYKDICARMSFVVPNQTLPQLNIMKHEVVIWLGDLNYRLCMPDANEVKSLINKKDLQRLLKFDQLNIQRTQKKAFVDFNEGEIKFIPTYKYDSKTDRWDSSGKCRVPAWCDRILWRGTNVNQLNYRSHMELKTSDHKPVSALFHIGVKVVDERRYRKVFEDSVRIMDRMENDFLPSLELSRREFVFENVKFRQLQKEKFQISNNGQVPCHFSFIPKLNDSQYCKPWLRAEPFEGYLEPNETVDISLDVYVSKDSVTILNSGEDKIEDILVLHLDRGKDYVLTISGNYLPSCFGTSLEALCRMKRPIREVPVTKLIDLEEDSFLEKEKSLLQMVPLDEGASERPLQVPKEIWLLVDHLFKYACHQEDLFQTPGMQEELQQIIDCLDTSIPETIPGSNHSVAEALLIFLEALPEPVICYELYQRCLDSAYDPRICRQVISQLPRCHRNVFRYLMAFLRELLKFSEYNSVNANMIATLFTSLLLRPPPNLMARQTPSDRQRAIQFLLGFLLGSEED
rab8a_human RAB8A, sequence (P61006 whole entry): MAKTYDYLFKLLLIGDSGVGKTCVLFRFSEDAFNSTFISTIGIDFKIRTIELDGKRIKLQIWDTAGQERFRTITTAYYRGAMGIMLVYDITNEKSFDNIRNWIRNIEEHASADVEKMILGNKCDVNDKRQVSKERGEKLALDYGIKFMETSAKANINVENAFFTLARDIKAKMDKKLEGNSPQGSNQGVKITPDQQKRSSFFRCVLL
Inositol polyphosphate 5-phosphatase OCRL (Homo sapiens), Q01968 F668A, sequence (Q01968 whole entry F668A): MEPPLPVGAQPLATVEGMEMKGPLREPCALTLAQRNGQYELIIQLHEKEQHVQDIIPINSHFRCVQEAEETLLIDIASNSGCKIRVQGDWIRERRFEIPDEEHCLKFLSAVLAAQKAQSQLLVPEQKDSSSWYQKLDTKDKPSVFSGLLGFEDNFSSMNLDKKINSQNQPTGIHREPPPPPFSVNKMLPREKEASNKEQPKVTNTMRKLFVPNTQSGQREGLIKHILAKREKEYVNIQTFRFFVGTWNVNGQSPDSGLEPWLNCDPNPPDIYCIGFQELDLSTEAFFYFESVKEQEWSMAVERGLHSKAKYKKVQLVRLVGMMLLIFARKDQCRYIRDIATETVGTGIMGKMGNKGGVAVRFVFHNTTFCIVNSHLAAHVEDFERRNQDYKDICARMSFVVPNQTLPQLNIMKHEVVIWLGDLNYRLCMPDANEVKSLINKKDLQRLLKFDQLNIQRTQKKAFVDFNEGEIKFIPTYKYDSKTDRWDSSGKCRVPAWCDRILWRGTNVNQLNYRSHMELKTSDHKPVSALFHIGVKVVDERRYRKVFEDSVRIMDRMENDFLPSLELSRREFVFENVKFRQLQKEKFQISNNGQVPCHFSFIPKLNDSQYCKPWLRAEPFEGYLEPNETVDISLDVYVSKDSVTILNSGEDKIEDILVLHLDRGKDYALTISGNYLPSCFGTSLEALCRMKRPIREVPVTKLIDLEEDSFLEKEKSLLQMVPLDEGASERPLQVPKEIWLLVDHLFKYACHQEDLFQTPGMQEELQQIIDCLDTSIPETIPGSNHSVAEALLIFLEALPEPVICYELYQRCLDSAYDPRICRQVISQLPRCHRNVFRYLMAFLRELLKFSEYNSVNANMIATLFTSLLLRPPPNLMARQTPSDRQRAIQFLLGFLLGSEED
rab6a_human RAB6A, sequence (P20340 whole entry, looked up): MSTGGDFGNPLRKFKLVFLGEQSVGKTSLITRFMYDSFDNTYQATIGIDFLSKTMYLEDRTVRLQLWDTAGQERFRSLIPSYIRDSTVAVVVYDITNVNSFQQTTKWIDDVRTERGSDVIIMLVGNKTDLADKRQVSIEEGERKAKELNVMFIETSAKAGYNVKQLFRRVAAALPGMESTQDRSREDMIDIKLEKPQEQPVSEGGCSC
rab5a_human RAB5A, sequence (P20339 whole entry): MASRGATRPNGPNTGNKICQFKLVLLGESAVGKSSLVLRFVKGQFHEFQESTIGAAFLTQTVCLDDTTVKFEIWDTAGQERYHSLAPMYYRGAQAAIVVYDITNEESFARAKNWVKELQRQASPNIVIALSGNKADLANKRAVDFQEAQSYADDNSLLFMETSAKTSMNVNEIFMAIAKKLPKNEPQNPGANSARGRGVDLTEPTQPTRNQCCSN
rab1b_human RAB1B, sequence (Q9H0U4 whole entry): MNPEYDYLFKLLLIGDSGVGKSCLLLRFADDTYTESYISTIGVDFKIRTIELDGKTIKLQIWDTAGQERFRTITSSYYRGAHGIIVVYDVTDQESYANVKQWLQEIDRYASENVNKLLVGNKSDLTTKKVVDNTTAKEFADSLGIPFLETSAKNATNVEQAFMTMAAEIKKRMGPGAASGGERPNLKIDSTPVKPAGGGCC

Row | effect of a mutation on the interaction (rab8a_human RAB8A [1]) | effect of a mutation on the interaction (rab5a_human RAB5A) | effect of a mutation on the interaction (rab8a_human RAB8A [2]) | effect of a mutation on the interaction (rab1b_human RAB1B) | effect of a mutation on the interaction (rab6a_human RAB6A) | effect of a mutation on the interaction (rab8a_human RAB8A [3]) | Substance
1 | decreasing interaction | disrupting interaction | – | – | – | – | Inositol polyphosphate 5-phosphatase OCRL (Homo sapiens), Q01968 F668A
2 | – | – | decreasing interaction | disrupting interaction | disrupting interaction | disrupting interaction | Inositol polyphosphate 5-phosphatase OCRL (Homo sapiens), Q01968 F668V
